Literature values, collected in publication PMC3417803.
Like-named read-outs stand apart in the source and are kept apart here.

Experiments:
Midkine (Homo sapiens) [1] = target: Midkine (Homo sapiens) (UniProt P21741)
Midkine (Homo sapiens) [2] = target: Midkine (Homo sapiens) (UniProt P21741); remark: listed apart in the source

Chain of UniProt P21741 (P21741 21-143): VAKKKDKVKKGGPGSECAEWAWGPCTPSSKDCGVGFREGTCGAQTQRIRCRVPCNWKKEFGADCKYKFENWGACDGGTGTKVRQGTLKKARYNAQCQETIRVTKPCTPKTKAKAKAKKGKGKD

- Kd (Midkine (Homo sapiens) [1]): 8.8 nM
- Kd (Midkine (Homo sapiens) [2]): 0.56 nM
Substance: PTPζ (from UniProt P23471)
